Experimental data from a protein production outcome set (Wang et al. 2014).

assay: label from the status in PepcDB records

| Sequence | protein production |
| --- | --- |
| VVAPITTGYTVKISNYGWDQSDKFVKIYITLTGVHQVPTENVQVHFTERSFDLLVKNLNGKSYSMIVNNLLKPISVEGSSKKVKTDTVLILCRKKVENTRWDYLTQVEKECKEK | not failed |
| VVFFRHLVSDDGSVRHTGDNLVGGVGQGGDDEAILVDLQRVPVHIDQIVFTVNSFTGQTFQEVQNAFCRLVDETNGQELARYTLAGGGAFTAQIMAKVHRAGQGWSMTAIGTPANGRTFQDLMPAILPVL | failed |
| VVKVALFVRLEAKPGKEKEVESFLMGGLPIVNEEPATTAWFGIRLGPSTFGIFDAFPNEAGRQAHLSGKVAAALMAKAGELFSEPPSIEKVDILAAKLPG | failed |
| VYPLELTLEEIFHGCLKKVAHKRKVLLFSGEYVEEERQLTVDVKPGLPTGTRFVFEGEGNKTPKKEPGPVVFVLKPKPHPRFVRRGSDLVHKVTLPLHHALIGTTLDIRTLDDRDLKVPISDIMRPGSSLTVPGEGMPLPATPSARGNLVIEIDLLFPTHLTETQKMLLRSAF | not failed |
| WERLRMLLEVCQFSRDASVAEAWLIAQEPYLASGDFGHTVDSVEKLIKRHEAFEKSTASWAERFAALEKPTTLELKERQIA | failed |
| WGLSVERSTYFLAPADRHYLADYARQAEDAWRREGAAGAERFRKELSAKEDTWVALVGPHLESLGSTPLSAEESSHLTFMRKLDWPMSRRLQDELPYVSIEFPGHPEQGRLVIQLPERLLPG | not failed |
| WILWSLTKISNHQEINEIIDQILQLTSDVFAADYTSVSFINNQQIARTISYYKFGKKEENISFSLINTPCAKVIQTKAICYFNDVQKQFPNDKLLKKMKINTYLAGPITNTQDEVIGIMTILCKRKVEFDTLNNTLFGLFLSRINSEIERLINLRKLE | failed |
| WKTGGRFLTLGVTLIMFIIVSNFLGLPFMYSATEAGEHIAWWRSPTSDPAVTLTLAVMVVTLTHYYGIKMKGTKEYVKGYFQPMKFLFPLKVIEEFANTLTLGLRLFGNIYAGEILLGLLAKLGGASFLGALGALVPMLAWMGFSVFVGSIQAFIFVMLTMVYMAHKVSHDH | failed |
| WTGEDSAEPNSDSAEWIRDMYAKVTEIWQEVMQRRDDDGTLHAACQVQPSATLDAAQPRVTGVVLFRQLAPRAKLDAFFALEGFP | failed |
| WVSNIDPAETFRHTELHVVKSVYDGLLTQNSNGGIEPALAHEWKMEENVMTLWLRPGIFRHDGELLSIDDVVWSLERLKQIKGPVYELWQCIETVTAETPNCLKIVLKRANQFFPYMLATPHASILCRDTASFGSGYSYHIGTGPFRISSWN | failed |
| YAHLRAGALRRLLQAQRLLPTGVRFLVLEGYRPPQLQRRYFEEYAATMRAAHPDEAPDRIRELTSAYISPPEVAPHVSGGAVDLTLCGADGTELPLGTEVNATPEESEGACRTAAPNISVEARANRAVMDRALTAVGFVNYPTEWWHWSYGDR | failed |
| YCVRGEKLVLFVTGVCPRNCFYCPLSPWRRKDVAYANERPIRKIEDIIEEAKIQEARGAGVTGGDPLARLNRTVEYIRTLKEEFGKKFHIHLYTTGILADKRALSMLYDAGL | failed |
| YESIDLKAVLFDMDGVLFDSMPNHAESWHKIMKRFGFGLSREEAYMHEGRTGASTINIVSRRERGHDATEEEIKAIYQAKTEEFNKCPKAERMPGALEVLTKIKSEGLTPMVVTGSGQTSLLDRLNHNFPGIFQANLMVTAFDVKYGKPNPEPYLMALKKGGFKPNEALVIENAPLGVQAGVAAGIFTIAVNTGPLHDNVLLNEGANLLFHSMPDFNKNWETLQSALKQ | failed |
| YGDINLNLLKDKGYTTLQDEAIKIFNSLQQLESMSDPIPIIQGILQTGHDLRPLRDELYCQLIKQTNKVPHPGSVGNLYSWQILTCLSCTFLPSRGILKYLKFHLKRIREQFPGTEMEKYALFTYESLKKTKCREFVPSRDEIEALIHRQEMTSTVYCHGGGSCKITINSHTTAGEVVEKLIRGLAMEDSRNMFALFEYNGHVDKAIESRTVVADVLAKFEKLAATSEVGDLPWKFYFKLYCFLDTDNVPKDSVEFAFMFEQAHEAVIHGHHPAPEENLQVLAALRLQYLQGDYTLHAAIPPLEEVYSLQRLKARISQSTKTFTPCERLEKRRTSFLEGTLRRSFRTGSVVRQKVEEEQMLDMWIKEEVSSARASIIDKWRKFQGMNQEQAMAKYMALIKEWPGYGSTLFDVECKEGGFPQELWLGVSADAVSVYKRGEGRPLEVFQYEHILSFGAPLANTYKIVVDERELLFETSEVVDVAKLMKAYISMIVKKRYSTTRSASSQGSSR | failed |
| YLELNEIESIIKDINTKAQKMHSGIHKRFYLFVALMTEFQALNGMRIGEMLAIQNEDIDFDNKSLNINGTIHWFHDESGGFGVKDTTKTESSYRTIGLSSRSCEILKKAILENKKDSKWNDGYLNRNFVFTNHKGNPMQTERFNKILREAAKDVGIDKEVSSHILRHSHISLLSQQGVSLKAIMDRVGHSDHRTTLSIYSHVTEQMDKDMMNKLEQVKLG | not failed |
| YLKVFDLDWHPDGMLDAKPALASADWKGLAELAQLSHKALEDAGLPQFEGSNAWAISGSRTQSGKPILAGDPHIRFSVPSVWYEAQLSAPGFELYGHFPALNPFAFLGHNMDFGWSLTMFQNDDVDLIAEKTNPDNPNQVWYHGQWVDMKRTEQQIAVKGQAPVTLTLIESPHGPIVNNVMGKNAGQTPIAMWWSFLVSANPVLDGFYDANRADTLDKMRSAAEKIQSPGLNIVWANAKGDIGWWAAAQLPIRPEGVNPGFILDGSTAQADKLGFYPFSANPHEENPARGYIVSANFQPLSPTGMQIPGYYNPAERGQELNRQLSDSSIKWDLAASKALQLSTQTDYAPSILRPLIPVLRSAISDPDELALVERLASWKGDYPVDSVGATLFN | failed |
| YMVPGLWGAPLKAVSAFAPPMKTQDFNLYTNEVHAKFDDYDLGMEYARQHNKPVMLDFTGYGCVNCRKMELAVWTDPKVSSIINNDYVLITLYVDNKTPLTEPVKIMENGTERTLRTVGDKWSYLQRVKFGANAQPFYVLIDNEGNPLNKSYAYDEDISKYINFLQTGLENYRKEK | failed |
| YQEPKGELVISAPTMFGRQHVLPVISEFIARYPLIRVRLLLSDRNADLVSDHVDLAVRIGDLADSSMVATRLGTMRIVACAHPALLAKYGEPQRPRDLAALPIIRIESPMPYRGWRFRAAEREDQLINLPPVLSVTTPESA | failed |
| YRATKLWNEVTTSFRAGMPLRKHRQHFKKYGNCFTAGEAVDWLYDLLRNNSNFGPEVTRQQTIQLLRKFLKNHVIEDIKGRWGSENVDDNNQLFRFPA | not failed |
| YRSKGEYHELLANHVAELSKLQNVLYADNRYAILLIFQAMDAAGKDSAIKHVMSGVNPQGCQVYSFKHPSATELEHDFLWRTNCVLPERGRIGIFNRSYYEEVLVVRVHPEILEMQNIPHNLAHNGKVWDHRYRSIVSHEQHLHCNGTRIVKFYLHLSKEEQRKRFLERIDDPNKNWKFSTADLEERKFWDQYMEAYESCLQETSTKDSPWFAVPADDKKNARLIVSRIVLDTLESLNLKYP | failed |
| YSVTVKWGKEKFEGVELNTDEPPMVFKAQLFALTGVQPARQKVMVKGGTLKDDDWGNIKMKNGMTVLMMGSADALPEEPSAKT | not failed |
| YTVEPVQDGERSVTLRRAGGTPLVAAMYHLPAAGSPDFVGLDLAATILADTPSGRLYHALVPTKLASGVFGFTMDQLDPGLAMFGAQLQPGMDQDKALQTLTATLESLSSKPFSQEELERARSKWLTAWQQTYADPEKVGVALSEAIASGDWRLFFLQRDRVRDAKLDDVQRAAVAYLVRSNRTEGRYIPTEKPQRAPLAQR | failed |
| YTVRLETEHAKEILSSDSPWASLEMFSFYGNYLKLVRTEYEGLRLSSGDTVFFLGSGPLPLTLIVFFRLYGVKSTGIEKDSFRANLSKKVLEKLGLSSVIKIVNGNHFSLSRKDLSLSPDTGVKALMIAAQAEPKKEIFEHLLEVMPIGGRISC | failed |
